Data published in PMC10880305.

Tests used:
Halo-KDELR-V5-VN (human) = target: T1, Halo-KDELR-V5-VN (human) (UniProt P24390)
T1 sequence: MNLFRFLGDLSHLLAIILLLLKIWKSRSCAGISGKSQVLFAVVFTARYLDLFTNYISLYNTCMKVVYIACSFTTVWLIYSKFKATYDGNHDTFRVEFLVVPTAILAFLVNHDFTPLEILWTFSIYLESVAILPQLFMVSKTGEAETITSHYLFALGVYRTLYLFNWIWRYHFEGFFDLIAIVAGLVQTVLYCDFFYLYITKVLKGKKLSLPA

[1] = target: T2, KDELR-mCherry (HT1080 stable) (human) (UniProt P24390)
T2 sequence: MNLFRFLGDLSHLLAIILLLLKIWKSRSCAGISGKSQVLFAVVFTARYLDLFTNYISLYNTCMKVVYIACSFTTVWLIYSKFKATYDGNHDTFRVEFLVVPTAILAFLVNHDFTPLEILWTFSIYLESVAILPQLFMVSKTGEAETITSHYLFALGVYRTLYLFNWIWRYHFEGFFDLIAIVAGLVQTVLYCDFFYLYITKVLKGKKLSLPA

TAEKDEL [TAEKDEL peptide]
Venus signal of Halo-KDELR-V5-VN with Halo-KDELR-myc-VC (split Venus), 30 min against 0 min with 50 μM TAEKDEL peptide (Halo-KDELR-V5-VN (human)): 2 fold | phosphorylation of STAT3 (Tyr705) in HT1080 cells stably overexpressing KDELR-mCherry, 50 μM TAEKDEL at 37 °C for 30 min, western blot [1]: 37%
